For orientation: Km means the concentration of substrate that gives half-maximal velocity.

The results in this text go back to publication PMC7530659, “Oxepinamide F biosynthesis involves enzymatic D-aminoacyl epimerization, 3H-oxepin formation, and hydroxylation induced double bond migration” (Nature Communications, 2020).

Series [1] deals with T1, CC[C@H](C)[C@@H]1NC(=O)[C@@H](Cc2ccccc2)n2c1nc1c(c2=O)C=CC=CO1.
T1 construct: recombinant N-terminally His6-tagged OpaC from cDNA, 457 amino acids, lacking residues 248 to 252 of KIA75456
In words: purified protein. In kind it is biochemical, Aspergillus ustus. As to conditions: FAD; NADPH.

Substrate in series [2]: CC[C@H](C)C1=C2N=C3OC=CC=C[C@]3(O)C(=O)N2[C@H](Cc2ccccc2)C(=O)N1
The experiment in a line: HPLC enzyme assay with purified OpaE, Michaelis-Menten kinetics (KM); D2O labeling by LC-MS. In kind it is biochemical, Aspergillus ustus.

On to OpaC (Aspergillus ustus; DEL248-252), for which the Km in series [1] was 430 ± 40 µM.

B1: OpaE (Aspergillus ustus) (protein)
chain: MGPLRVFTDNKVKVMLLNPIGGAGFNDFVVETVLNHKDPSTHVTITSLANRIGGNQTLAYPSIRPLLYGEMIRVCLQARKENYDVLIINCFGDPMVDELQQIAGDDMVILGARQVAVQTASKISSKYAVLLPYDMKSSPDPLHQRVVADTRTAVAHPVVDMAFNDDLTPMDGESLGERLATQGKLAIKENGAEVLVLGCTAMVGCWQGLMRAVGVPVIDPTVAALRAAGKAGRLKRELVGGASTKRSGTFPTEKELKMIAESEPSYPFSGRIEI
notes: recombinant His6-tagged OpaE
On to B1, for which, in series [2], the Michaelis constant (Km) stood at 1410 ± 50 µM.
